Results on 41 sequences are retold here after the nanobody polyreactivity screen of Harvey et al. (2022).

A short description of the data set: yeast display, Sf9 membrane polyspecificity reagent, FACS + sequencing; frameworks hold sequencing errors. A digest of the protocol:
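Nanobodies came from a synthetic yeast display library in Saccharomyces cerevisiae BJ5465, induced with galactose for 36–48 hours and stained for 1 hour at 4 °C with 10% biotinylated, detergent-solubilized Sf9 membrane reagent. Cells were enriched on streptavidin microbeads and then FACS-sorted, with low and high (top ~1%) gates set on anti-HA fluorescence for expression and streptavidin fluorescence for reagent binding. Each polyreactivity label reflects the gate a clone came from. Genes were amplified by colony PCR, sequenced by MiSeq 2 × 250 and filtered by CDR length.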
Regarding “QVQLVESGGGLVQAGGSLRLSCAASGRIFYRNAMGWYRQAPGKEREFVAAITFRSGGTYYADSVKGRFTISRDNAKNTVYLQMNSLKPEDTAVYYCATRYLGASRYGYWGQGTQVTVSS”, the “polyreactivity (PSR sort gate)” value is reported as “high polyreactivity”.
With “QVQLVESGGGLVQAGGSLRLSCAASGRIFKQYTMGWYRQAPGKERELVAAITSSGAGTFYADSVKGRFTISRDNAKNTVYLQMNSLKPEDTAVDYCAAAYYYASRMDYWGQGTQVTVSS”, the “polyreactivity (PSR sort gate)” value is given as “high polyreactivity”.
For “QVQLVESGGGLVQAGGSLRLSCAASGFIFARNTMGWYRQAPGKERELVAAITKSGGSTNYADSVKGRFTISRDNAKNTVYLQMNSLKPEDTAVYYCAARTYTLRGVYFSGYNYWGQGTQVTVSS”, the “polyreactivity (PSR sort gate)” value is “low polyreactivity”.
For “QVQLVESGGGVVQAGGSLRLSCAASGRIFPYNAMGWYRQAPGKERELVAAISSGGSTTYADSVKGRFTISRDNAKNTVYLHMNSLKPEDTAVYYCAREVYRHYAPVGYDYWGQGTQVTVSS” the value was “high polyreactivity”.
Regarding “PLQLVESGGGLVQAGGSLRLSCAASGIIFGRYTMGWYRQAPGKERELFAAITSSGITYYADSVNGRFTISRDNAKNTVYLQLNSLKPEDTAVYYCNADYSIPGYYWPYDYWGLGTQVTVSS”, the “polyreactivity (PSR sort gate)” value is recorded as “low polyreactivity”.
Regarding “QVQLVESGGGLVQAGGSLRLSCAASGFTFYTNAMGWYRQARGQERELVAAISSSGGRTYYADSVKGRFTISRDNAKNTVYLQMNSLKPEDTAVYYCNAYFTRSFSYIYWGQGTQVTVSS”, the “polyreactivity (PSR sort gate)” value is listed as “high polyreactivity”.
For “QVQLVETGGGLVQAGGSLRLSCAASGSIFTKYAMGRYRQAPGKERELVAAISWSGVSTYYADSVKGRFTISRDNAKNTVYLLMNSLKPEDTAVYYCNTRRYRSYGTTRYCFWGQGTQVTVSS”, the “polyreactivity (PSR sort gate)” value was “high polyreactivity”.
Consider “QVKRVESGGGLVQAGGSLRLSCAASGSTFYRYAMGWYRQAPGKERELVAAINGRGGRTYYADSVKGRFTISRDNAKNTVYLQMNSLKPEDTAVYYCAARGYAPDTYGYWGQGTQVTVSS”, for which the “polyreactivity (PSR sort gate)” value is “high polyreactivity”.
With “QDQLVESGGGLVQAGGSLRLSCAASGINLSAYAMGWYRQAPGKERELVARISRSGGRTYYADSVKGRFTISRDNAKNTVYLQRNSLKQDDTAVYYCAADYTYGFGLYFGFGYWGQGTKVTVSS”, the “polyreactivity (PSR sort gate)” value was “high polyreactivity”.
For “QVQLVESGGGLVQAGGSLRLSCAASGYILYANAMGWYRQAPGKERELVASITFGDDSTYYADSVKGRFTISRDNAKNTVYLQMNSLKPEDTAVYYCNADHKVEVEDDYWGQGTQVTVSS” the value was “low polyreactivity”.
For “QVQLVESGGGLVQAGGSLRLSCASSGSTFSRYALGWYRQAPGKERELVAAITSYGGSTYYADSVKGRFTISRDKAKNTFYLQMNSLKPEYTAVYYCAASYQVRYDYWGQGTQVTVSS” the value was “high polyreactivity”; for “QVQLVESGGGLVQAGGSLRLSCAASGSIFFGYAMGWYRQAPGKERELVAGISSNGGTTYYADSVKGRFTISRDHANNTVNLQMNSQKPEDTAVYDCATQYYARGYLYDYWGQGTQVTVSS”, “low polyreactivity”.
On to “QVQLVESGGGLVQAGGSLRLSCAASGSTSYLYAMGWYRQAPGKERELVATITTRSGSTYYADSVKGRFTISRDNAKNTVYLQINSLKPEDTAVYYCAARWISVLSEGAEHDYWGQGTQVTVSS”, for which the “polyreactivity (PSR sort gate)” value is “low polyreactivity”.
“QVQLVESGGGLVQAGGSLRLSCAASGNTVWYNAMGWFIQAPGKETELVAAISYSGGGTYYAVSVKGRFTISREKAKNTVYLQMNCLKPDDSAVYYCSADTLQRAFVLYDYWGQGTQVTVSS”: the “polyreactivity (PSR sort gate)” value was “low polyreactivity”.
On to “QVQLVESGGGLVQAGGSLRLSCAASGRTFYDYTMGWYRQAPGKERELVAVISKRGGSTYYADSVKGRFTISRDNAKNTVYLQMNSLKPEDTAVYYCAAKSGRNVYQKVDYWGQGTQVTVSS”, for which the “polyreactivity (PSR sort gate)” value is on record as “high polyreactivity”.
With “QVQLVESGGGLVQAGGSLRLSSAASGSILSYNAMGWYRQAPGKERELVASITGTGRSTRYADSVKGRFTISRDNAKNSVYLQMNSLKPEDTAVYYCATAAWWYYRIYHEFGYWGQGTQVTVSS”, the “polyreactivity (PSR sort gate)” value was “high polyreactivity”.
As to “PVQLVESGGGLVQAGGSLRLSCAASGSIFDLNAMGWYRQAPGKERELVAAISSGGGTYYADSVKGRFTISLDNAKNTVYLQMNSLKPEDTAVYSCNRVTRGSYNYWGQGTQVTVSS”, the “polyreactivity (PSR sort gate)” value was “high polyreactivity”.
Regarding “QVQLVESGGGLVQAGGSLRLSCAASGRIFRRNAMGWYRQAPGKEREFVATITSGGSTFYADSVKGRFTISRDNAKNTVYLQMNSLKPEDTAVYYCAAPSYNTPFHTPNYSWGQGTQVTVSS”, the “polyreactivity (PSR sort gate)” value is “low polyreactivity”.
On to “QVQLVESGGGLVQAGGSVRLSCAASGRIFRHNTRGWYRQAPGKERELVAAITFSDGNTYYADSVKGRFTISRDNAKNTVYLQMNSLKPEDTAVYYCNAGYSYGVSYAEGGYWGQGTQVTVSS”, for which the “polyreactivity (PSR sort gate)” value is on record as “low polyreactivity”.
As for “QVQLVESGGGLVQAGGSLRLSCAASGFTIAKYAMGWYRQAPGKERELVAAISSSGGRTYYADSVKGRFTISRDIAKNTVYLQMNSLNPEDTAVYYCAADFSGPFDYWGQGTQVSVSS”, the “polyreactivity (PSR sort gate)” value was “high polyreactivity”.
As to “QVQLVESWGGLVQAGGSLRLSCAASGSNFYTYAMGWYRQAPGKERDFVAAITWSGGRTYYADSVKGRFTISRDNAKNSVYLQMNSLKPEDTAVYYCAATSWWATTGFDYWGQGTQVTVSS”, the “polyreactivity (PSR sort gate)” value is “low polyreactivity”.
As for “QVQLVESGGRLVQSGGSLRLSCAASGSIFVWNAMGWYRQAPGKERELVAAISYDGGSTYYADSVKGRFTISRDNAKNTVYLQMNSLKPEDTAVYYCAFEYVYWLSWYFQYDYWGQGTQVTVSS”, the “polyreactivity (PSR sort gate)” value is “low polyreactivity”.
As to “KVQLVESRGGLVQAGGSLRLSCAASGIIFYTYAMGWNRQAPGKERELVASISWDVDSTNYADSVKGRFTISRDNAKNTVYLQMNSLKPEYTAVYYCAVDYTFDSYWYWVDYYEYGYWGQGTQVTVSS”, the “polyreactivity (PSR sort gate)” value was “high polyreactivity”.
Take “QVQLVESGGGLVQAGGSLRLSCAASGSIFGRNTMGWYRQAPGKERELVAAIDSSGGSTYYADSVKGRFTISRDNAKNTVYLQMNSLKPEDTAVYYCAAESRYATKSGYGLVLYYYWGQGTQVTVSS”: the “polyreactivity (PSR sort gate)” value was “high polyreactivity”.
Turning to “QVQLVESVGGLDQARGSLRLSCAASGFIYRYYPMGWYRQSPGKERELVASIDWSGGNTYYADSVKGRFTISRDKAKYTVYLQMNSLKPEDTAVYYCNRRGMDWGLGTQVTVSS”, the “polyreactivity (PSR sort gate)” value was “low polyreactivity”.
Regarding “QVQLVESGGGLVQAGGSLRLSCAASGRTFSPYDMGWSRQAPGKERELVAAISFSDTITYYADSVKGRFTISRDNAKNTVYLQMNSLKPEDTAVYYCAADAGGYYEWELYDYWGQGTQVTVSS”, the “polyreactivity (PSR sort gate)” value is reported as “low polyreactivity”.
As to “QVQLVESGGGLVQAGGSLRLSCAASGRIFYTYAMGWYRQAPGKERELVAAITYRGGSTYYADSVKGRFTISRDNAKNTVYLQMNSLKPEDTAVYYCATQLWDRYGFGYWGQGTQVTVSS”, the “polyreactivity (PSR sort gate)” value is “high polyreactivity”.
Turning to “QVQLVESGGGLVQAGGSLRLSCAASGSIFGYNTMGWYREAPGKERELVAAISYRGGSTYADSVKGRFTISRDNAKNTVYLQLNSLKPEDTAVYYSAATSYTATWRYYYWGQGTQVTVSS”, the “polyreactivity (PSR sort gate)” value is listed as “high polyreactivity”.
With “QFQLVESGGGLVQAGGRLRLSCAASGVIFSYYAMGCYRQAPGKERELVAAISSSGSRTYYADSVKGRFTISRDNAKNTVYLQMNRLKPEDTAVYYCAARGAAKYGYWGQGTQVTVSS”, the “polyreactivity (PSR sort gate)” value is on record as “high polyreactivity”.
On to “QVQLVESGGGLVQAGGSLRLSCAASGIIFYANVMGLYRQAPGKERELVAGISRNGGRTYYADSVKGRFTISRDNAKNTVYLQMNSLKPADTAVYYCAALGSYTSIFDYWGQGTQVTVSS”, for which the “polyreactivity (PSR sort gate)” value is recorded as “high polyreactivity”.
For the sequence “QVQLVESGGGLVQAGGSLSLSCAASGSTFAYYAMGWYRQAPGKERELVAGITWTGGSTYYADSVKGRFTISRDNAKHTDYLQMNSLKPEDTAVYYCAVTYPYGYEYDHWGQGSQVTVSS”, the “polyreactivity (PSR sort gate)” value is given as “low polyreactivity”.
As for “QVQLVESGGGLVQAGGSLRLSCAASGSTFSRYSMGWYRQAPGKERELVAAITGRGGRTYYADSVKGRFTISRDNAKKTVYLQLNSLKPEDTAVYYCAAYYGPYRSLYYYWGQGNQVTVSS”, the “polyreactivity (PSR sort gate)” value is on record as “high polyreactivity”.
The same measure for “QVQLVESGGGLVQAGGSLRLSCAASGRIFGVNAMGWYRQAPGNERELVAHIRSSGASTYYADSVKGRFTISRDNAKNTVYLQMNSLKPEDTAVYYCARDYFVDGPGYDYWGQGTQVTVSS”: “low polyreactivity”; for “QVQLVESGGGLVQAGGSLRLSCPASGSIFRFYTMGWYRQAPGKERELVASITWTGGSSYYADSVKGRFTISRDNAKNTVYLQMNSLKPEDTAVYYCAARRYLRLVGRYDYWGQGTQVTVSS”: “low polyreactivity”.
Turning to “QVQLVESGGGLVQAGGSLRLSCAASGFSFRQYAMGWYRQAPGKERELVAAISRSGSRTYYADSVKGRFTLSRDNAKNTGYLQMNSLKAEDTAVYYCNAVFSTFTGEYYWGQGTQVTVSS”, the “polyreactivity (PSR sort gate)” value is listed as “high polyreactivity”.
The same measure for “QVQLVESGGGLVQAGGSLRLSCAASGFTVSYYVMGWYRQAPGKERELVAGISWSGVSTYYADSVKGRFTISRDNAKNTVYLQMNSLKPEDTAVYYCAAGYDFSFFVPVRYTEYDYWGQGTQVTVSS”: “high polyreactivity”.
Take “QVQLVESGGGLVQAAGSLRLSCAASGLTFPFYTMGWYIQAPGKARELVAAISRRGGSTYYADSVKGRFTISRDNAKNTVYLQMNSLKPEDTAVYYCAADKYSWYDYWGQGTQVTVSS”: the “polyreactivity (PSR sort gate)” value was “low polyreactivity”.
“QVQLVESGGGLVQAGGSLRLSCAASGSIFYWYAMGWYRQEPGKERELVAAIDISDDTYYADSVKGRYTISRDNAKNTVYLLMNRLKPEDTAVYYCATDEWYLFEYPFYYWGQGSQVTVSS”: the “polyreactivity (PSR sort gate)” value was “high polyreactivity”.
The same measure for “QVQLVESGGGLVQARGSLRLSCAASGRNFPSNAMGWYRQAPGKERELVPVITRGSRTKYADCVKGRFTISRDKAMNTVYLQMNSLKPEDSAVYYCAALGGLLYTQGHSEAYWGQGTQGTVSS”: “low polyreactivity”.
The same measure for “QVQVLESGGGLVQAGGSLRLSCAASGSIFDFYAMGWYRQAPGKDRELVAAISYRGGSTYADSVKGRFTISRDNAKNTVYLQMNSLKPEDTAVYYCAKVPDYRFEYWGQGTQVTVSS”: “high polyreactivity”; for “QVQLVESGGGLVQAGGSLRLSCAASGSTFTPNAMGWYRQAPGKERELVAAINWSDSSTYYADSVKGRFTISRDNAKNTVYLQMNSLKPEDTAVYFCAAAAQYGQLQVPVYYWGQGTQVTVSS”: “low polyreactivity”.
